Assay results published in US4285932A, “Enzyme derivatives for use in the treatment of venous thrombosis” (Beecham Group Limited, priority 1978, dated 1981).

B1: p-Anisoyl: porcine plasmin, active site serine blocked by p-anisoyl; porcine column of Table 1 (protein, UniProt P06867 20-579; P06867 580-809, looked up)
Plasmin heavy chain A: DSLDDYVNTQGAFLFSLSRKQVAARSVEECAAKCEAETNFICRAFQYHSKDQQCVVMAENSKTSPIARMRDVVLFEKRIYLSECKTGNGKNYRGTTSKTKSGVICQKWSVSSPHIPKYSPEKFPLAGLEENYCRNPDNDEKGPWCYTTDPETRFDYCDIPECEDECMHCSGEHYEGKISKTMSGIECQSWGSQSPHAHGYLPSKFPNKNLKMNYCRNPDGEPRPWCFTTDPNKRWEFCDIPRCTTPPPTSGPTYQCLKGRGENYRGTVSVTASGHTCQRWSAQSPHKHNRTPENFPCKNLEENYCRNPDGETAPWCYTTDSEVRWDYCKIPSCGSSTTSTEYLDAPVPPEQTPVAQDCYRGNGESYRGTSSTTITGRKCQSWVSMTPHRHEKTPGNFPNAGLTMNYCRNPDADKSPWCYTTDPRVRWEYCNLKKCSETEQQVTNFPAIAQVPSVEDLSEDCMFGNGKRYRGKRATTVAGVPCQEWAAQEPHRHSIFTPETNPRAGLEKNYCRNPDGDDNGPWCYTTNPQKLFDYCDVPQCVTSSFDCGKPKVEPKKCPAR
Plasmin light chain B: VVGGCVSIPHSWPWQISLRHRYGGHFCGGTLISPEWVLTAKHCLEKSSSPSSYKVILGAHEEYHLGEGVQEIDVSKLFKEPSEADIALLKLSSPAIITDKVIPACLPTPNYVVADRTACYITGWGETKGTYGAGLLKEARLPVIENKVCNRYEYLGGKVSPNELCAGHLAGGIDSCQGDSGGPLVCFEKDKYILQGVTSWGLGCALPNKPGVYVRVSRFVTWIEEIMRRN
modifications: plasmin p-anisoyl acylated active site
B2: Acetylsalicycloyl: human plasmin, active site serine blocked by acetylsalicyloyl (acylating agent of Example 7) (protein, UniProt P00747 20-580; P00747 581-810, looked up)
Plasmin heavy chain A: EPLDDYVNTQGASLFSVTKKQLGAGSIEECAAKCEEDEEFTCRAFQYHSKEQQCVIMAENRKSSIIIRMRDVVLFEKKVYLSECKTGNGKNYRGTMSKTKNGITCQKWSSTSPHRPRFSPATHPSEGLEENYCRNPDNDPQGPWCYTTDPEKRYDYCDILECEEECMHCSGENYDGKISKTMSGLECQAWDSQSPHAHGYIPSKFPNKNLKKNYCRNPDRELRPWCFTTDPNKRWELCDIPRCTTPPPSSGPTYQCLKGTGENYRGNVAVTVSGHTCQHWSAQTPHTHNRTPENFPCKNLDENYCRNPDGKRAPWCHTTNSQVRWEYCKIPSCDSSPVSTEQLAPTAPPELTPVVQDCYHGDGQSYRGTSSTTTTGKKCQSWSSMTPHRHQKTPENYPNAGLTMNYCRNPDADKGPWCFTTDPSVRWEYCNLKKCSGTEASVVAPPPVVLLPDVETPSEEDCMFGNGKGYRGKRATTVTGTPCQDWAAQEPHRHSIFTPETNPRAGLEKNYCRNPDGDVGGPWCYTTNPRKLYDYCDVPQCAAPSFDCGKPQVEPKKCPGR
Plasmin light chain B: VVGGCVAHPHSWPWQVSLRTRFGMHFCGGTLISPEWVLTAAHCLEKSPRPSSYKVILGAHQEVNLEPHVQEIEVSRLFLEPTRKDIALLKLSSPAVITDKVIPACLPSPNYVVADRTECFITGWGETQGTFGAGLLKEAQLPVIENKVCNRYEFLNGRVQSTELCAGHLAGGTDSCQGDSGGPLVCFEKDKYILQGVTSWGLGCARPNKPGVYVRVSRFVTWIEGVMRNN
modifications: plasmin acetylsalicyloyl acylated active site
B3: 3,3 Dimethylacryloyl: human plasmin, active site serine blocked by 3,3-dimethylacryloyl (acylating agent of Example 4) (protein, UniProt P00747 20-580; P00747 581-810, looked up)
Plasmin heavy chain A: B2 Plasmin heavy chain A
Plasmin light chain B: B2 Plasmin light chain B
modifications: plasmin 3,3-dimethylacryloyl acylated active site
B4: O-Anisoyl: human plasmin, active site serine blocked by o-anisoyl (acylating agent of Example 15) (protein, UniProt P00747 20-580; P00747 581-810, looked up)
Plasmin heavy chain A: B2 Plasmin heavy chain A
Plasmin light chain B: B2 Plasmin light chain B
modifications: plasmin o-anisoyl acylated active site
B5: 2,4 Dimethoxybenzoyl: human plasmin, active site serine blocked by 2,4-dimethoxybenzoyl (acylating agent of Example 6) (protein, UniProt P00747 20-580; P00747 581-810, looked up)
Plasmin heavy chain A: B2 Plasmin heavy chain A
Plasmin light chain B: B2 Plasmin light chain B
modifications: plasmin 2,4-dimethoxybenzoyl acylated active site
B6: 3 Methyl 4-methoxybenzoyl: human plasmin, active site serine blocked by 3-methyl-4-methoxybenzoyl (acylating agent of Example 17) (protein, UniProt P00747 20-580; P00747 581-810, looked up)
Plasmin heavy chain A: B2 Plasmin heavy chain A
Plasmin light chain B: B2 Plasmin light chain B
modifications: plasmin 3-methyl-4-methoxybenzoyl acylated active site
B7: O-Toloyl: human plasmin, active site serine blocked by o-toluoyl (acylating agent of Example 9) (protein, UniProt P00747 20-580; P00747 581-810, looked up)
Plasmin heavy chain A: B2 Plasmin heavy chain A
Plasmin light chain B: B2 Plasmin light chain B
modifications: plasmin o-toluoyl acylated active site
B8: N-methyl-p-guanidinobenzoyl: human plasmin, active site serine blocked by N-methyl-p-guanidinobenzoyl (protein, UniProt P00747 20-580; P00747 581-810, looked up)
Plasmin heavy chain A: B2 Plasmin heavy chain A
Plasmin light chain B: B2 Plasmin light chain B
modifications: plasmin N-methyl-p-guanidinobenzoyl acylated active site
B9: p-Ethoxybenzoyl: human plasmin, active site serine blocked by p-ethoxybenzoyl (acylating agent of Example 8) (protein, UniProt P00747 20-580; P00747 581-810, looked up)
Plasmin heavy chain A: B2 Plasmin heavy chain A
Plasmin light chain B: B2 Plasmin light chain B
modifications: plasmin p-ethoxybenzoyl acylated active site
B10: p-Acetamidobenzoyl: human plasmin, active site serine blocked by p-acetamidobenzoyl (acylating agent of Example 18) (protein, UniProt P00747 20-580; P00747 581-810, looked up)
Plasmin heavy chain A: B2 Plasmin heavy chain A
Plasmin light chain B: B2 Plasmin light chain B
modifications: plasmin p-acetamidobenzoyl acylated active site
B11: p-Anisoyl Human Plasmin (protein, UniProt P00747 20-580; P00747 581-810, looked up)
Plasmin heavy chain A: B2 Plasmin heavy chain A
Plasmin light chain B: B2 Plasmin light chain B
modifications: Plasmin active-site p-anisoyl acylated
notes: human plasmin acylated at the catalytic site with p-amidinophenyl p'anisate
B12: p-Fluorobenzoyl: porcine plasmin, active site serine blocked by p-fluorobenzoyl (protein, UniProt P06867 20-579; P06867 580-809, looked up)
Plasmin heavy chain A: B1 Plasmin heavy chain A
Plasmin light chain B: B1 Plasmin light chain B
modifications: plasmin p-fluorobenzoyl acylated active site
B13: p-Methyl-t-cinnamoyl: porcine plasmin, active site serine blocked by p-methyl-trans-cinnamoyl (protein, UniProt P06867 20-579; P06867 580-809, looked up)
Plasmin heavy chain A: B1 Plasmin heavy chain A
Plasmin light chain B: B1 Plasmin light chain B
modifications: plasmin p-methyl-trans-cinnamoyl acylated active site

Test system: Human Plasmin
Assay: Deacylation (hydrolysis) of active-site blocked human plasmin, pseudo-first order rate constant followed by regain of activity on chromogenic substrate S-2251
Type: biochemical
Details: active site serine substituted human plasmin; pH 7.4, 37° C.
Experimental: (§1) The pseudo-first order rate constant is determined by hydrolysing the enzyme derivative under physiological conditions i.e. in isotonic aqueous media at pH 7.4 and at 37° C. At regular intervals aliquots are withdrawn and incubated with a chromogenic or fluorogenic protease substrate such as S-2251 (H-D-Val-Leu-Lys-p-nitroanilide 2HCl) and the rate of conversion of the substrate measured.
(§2) The hydrolysis is followed until such time as the rate of conversion of substrate reaches a maximum. The rate constant k is then calculated by plotting: […]
(§3) loge (1-^At /Amax) against t
(§4) where Amax the maximum rate at which an aliquot converts substrate and At is the rate at which an aliquot converts substrate at time t.

Going from B1 to B2, the “Deacylation rate, Human Plasmin K sec^-1 × 10^4” value rises from 1.10 sec^-1 × 10^4 to 4.70 sec^-1 × 10^4.

Compared with B3, B4 is higher in “Deacylation rate, Human Plasmin K sec^-1 × 10^4” value: 0.69 sec^-1 × 10^4 for the first, 1.82 sec^-1 × 10^4 for the second.

First: B5
Second: B6
The “Deacylation rate, Human Plasmin K sec^-1 × 10^4” value of the first is higher: 1.10 sec^-1 × 10^4 for the first, 0.70 sec^-1 × 10^4 for the second.

Going from B7 to B8, the “Deacylation rate, Human Plasmin K sec^-1 × 10^4” value rises from 1.71 sec^-1 × 10^4 to 2.0 sec^-1 × 10^4.

First: B9
Second: B10
The “Deacylation rate, Human Plasmin K sec^-1 × 10^4” value of the first is lower: 1.10 sec^-1 × 10^4 for the first, 2.70 sec^-1 × 10^4 for the second.

Same assay, conditions: conditions specified for deacylation (isotonic aqueous media, pH 7.4, 37° C.)

In the case of B11, the “time for quantitative reactivation to free plasmin” value is reported as “approximately two”.

Test system: Porcine Plasmin
Assay: Deacylation (hydrolysis) of active-site blocked porcine plasmin, pseudo-first order rate constant followed by regain of activity on chromogenic substrate
Type: biochemical
Details: active site serine substituted porcine plasmin; pH 7.4, 37° C.
Experimental: as §1, §2, §3, §4

Compared with B12, B1 is lower in “Deacylation rate, Porcine Plasmin K sec^-1 × 10^4” value: 3.30 sec^-1 × 10^4 for the first, 0.33 sec^-1 × 10^4 for the second.

In the case of B13, the “Deacylation rate, Porcine Plasmin K sec^-1 × 10^4” value is reported as 2.92 sec^-1 × 10^4.

Test system: streptokinase-human plasminogen activator complex
Assay: Deacylation of acylated streptokinase-human plasminogen activator complex to free enzyme
Type: biochemical
Details: acyl-activator complex solution; 37° C.
Experimental: as §1, §2, §3, §4

Compared with “3-Methyl p-Anisoyl Streptokinase-human Plasminogen Activator Complex [Example 23]”, “p-Anisoyl Streptokinase-Human Plasminogen Activator Complex [Example 22]” is 2.7-fold higher in “pseudo-first order (deacylation) rate constant of regeneration to free enzyme” value: 0.0001 s⁻¹ for the first, 0.00027 s⁻¹ for the second.
